Consider seven molecules from patent US20050182242A1, “Global analysis of protein activities using proteome chips” (priority 2001, published 2005).

To fix the notation:
B1: OPY1: yeast GST-HisX6 fusion protein on proteome chip (protein, UniProt P38271 1-328, looked up)
Pleckstrin homology domain …: MIAGATAPSSQHEILIASNLIKKPSTSQNKTPTAQSSSGNNGAADGAPQGYHHHHHHHRHLWWPRTTDHQYWCVLRKNQFAYYKTRDEREAISVIPRFDILNFKISELDGILTVYTPSKDLIFKFPRGQNEKVGMELMHNWKIALEKFLSSPSGNESVTTGSDYDEEEDDDDLIVVDEKAGPSSSKHSCSLTMDEQLSREDKEFYRMFDPRNAEHQVCSGILYTKVKKKKLFNRAKWQKFNVELTNTSFNLYSFKTGKLKKSIKLDKIIDCIELDNNSKMKNDDTNFALITFDERLSFKAANDQDMVDWIINFKSGILIRKKLKAENI
modifications: GST-His6 fusion tag
notes: yeast GST-HisX6 fusion protein on proteome chip
B2: APG1: yeast GST-HisX6 fusion protein on proteome chip (protein, UniProt P53104 1-897, looked up)
Serine/threonine-protein …: MGDIKNKDHTTSVNHNLMASAGNYTAEKEIGKGSFATVYRGHLTSDKSQHVAIKEVSRAKLKNKKLLENLEIEIAILKKIKHPHIVGLIDCERTSTDFYLIMEYCALGDLTFLLKRRKELMENHPLLRTVFEKYPPPSENHNGLHRAFVLSYLQQLASALKFLRSKNLVHRDIKPQNLLLSTPLIGYHDSKSFHELGFVGIYNLPILKIADFGFARFLPNTSLAETLCGSPLYMAPEILNYQKYNAKADLWSVGTVVFEMCCGTPPFRASNHLELFKKIKRANDVITFPSYCNIEPELKELICSLLTFDPAQRIGFEEFFANKVVNEDLSSYELEDDLPELESKSKGIVESNMFVSEYLSKQPKSPNSNLAGHQSMADNPAELSDALKNSNILTAPAVKTDHTQAVDKKASNNKYHNSLVSDRSFEREYVVVEKKSVEVNSLADEVAQAGFNPNPIKHPTSTQNQNVLLNEQFSPNNQQYFQNQGENPRLLRATSSSSGGSDGSRRPSLVDRRLSISSLNPSNALSRALGIASTRLFGGANQQQQQQQITSSPPYSQTLLNSQLFHELTENIILRIDHLQHPETLKLDNTNIVSILESLAAKAFVVYSYAEVKFSQIVPLSTTLKGMANFENRRSMDSNAIAEEQDSDDAEEEDETLKKYKEDCLSTKTFGKGRTLSATSQLSATFNKLPRSEMILLCNEAIVLYMKALSILSKSMQVTSNWWYESQEKSCSLRVNVLVQWLREKFNECLEKADFLRLKINDLRFKHASEVAENQTLEEKGSSEEPVYLEKLLYDRALEISKMAAHMELKGENLYNCELAYATSLWMLETSLDDDDFTNAYGDYPFKTNIHLKSNDVEDKEKYHSVLDENDRIIIRKYIDSIANRLKILRQKMNHQN
modifications: GST-His6 tag
notes: as for B1
B3: LYS1: yeast GST-HisX6 fusion protein on proteome chip (protein, UniProt P38998 2-373, looked up)
Saccharopine dehydrogenase …: AAVTLHLRAETKPLEARAALTPTTVKKLIAKGFKIYVEDSPQSTFNINEYRQAGAIIVPAGSWKTAPRDRIIIGLKEMPETDTFPLVHEHIQFAHCYKDQAGWQNVLMRFIKGHGTLYDLEFLENDQGRRVAAFGFYAGFAGAALGVRDWAFKQTHSDDEDLPAVSPYPNEKALVKDVTKDYKEALATGARKPTVLIIGALGRCGSGAIDLLHKVGIPDANILKWDIKETSRGGPFDEIPQADIFINCIYLSKPIAPFTNMEKLNNPNRRLRTVVDVSADTTNPHNPIPIYTVATVFNKPTVLVPTTAGPKLSVISIDHLPSLLPREASEFFSHDLLPSLELLPQRKTAPVWVRAKKLFDRHCARVKRSSRL
modifications: GST-HisX6 tag
notes: as for B1
B4: KCC4: yeast GST-HisX6 fusion protein on proteome chip (protein, UniProt P25389 1-1037, looked up)
Probable …: MTVANTETHSAAKPSSTIGPWKLGETLGFGSTGKVQLAQHERTGHRTAVKVISKSIFNNNGNHSNDDSVLPYNIEREIVIMKLLSHPNVLSLYDVWETNNNLYLILEYAEKGELFNLLVDHGPLPEREAINCFRQIIIGISYCHALGIVHRDLKPENLLLDSFYNIKIADFGMAALQTDADLLETSCGSPHYAAPEIVSGLPYEGFASDVWSCGVILFALLTGRLPFDEENGNVRDLLLKVQKGQFEMPNDTEISRDAQDLIGKILVVDPRQRIKIRDILSHPLLKKYQTIKDSKSIKDLPRENTYLYPLADSNNHTSASIDDSILQNLVVLWHGRHADDIVSKLKENGTNKEKILYALLYRFKLDSVRGSNKKNRNKIKKTKKNKRSSTLSSSSSLLLNNRSIQSTPRRRTSKRHSREFSSSRKRSSFLLSSNPTDSSPIPLRSSKRITHINVASANTQATPSGVPNPHKRNSKKRSSKRLSYMPNTKRSSLTSKSLSNFTNLIDDDDWEYIEKDAKRTSSNFATLIDEIFEPEKFELAKREKAELQRKVQEAKRQSVNAQKINEDEFGSEVSDGMKELKKINDKVSSPLINYEFSQQELLQDIDTLLTNRYQLSSYTRPISRLDPGLTPVTETLPNNLKEKTALLQDTEKKIIETIRRSKFLGSLLNVRGGLSPGKSELAPIEESPIVSTTPLIYNDRMEPRRISDVEVPHFTRKSKHFTTANNRRSVLSLYAKDSIKDLNEFLIKEDPDLPPQGSTDNESRSEDPEIAESITDSRNIQYDEDDSKDGDNVNNDNILSDFPQGVGISQEYDMKDKNPNQSPISKSAEPTLVVKLPSLSSFQGKNASGLGLYQREPSKVTLPSLTSNNSSVGENIEDGAEKGTESEKIAASLSDDDLKEDNDKKDNDTVNAPTTVKKPPNSVLLKKFSKGKILELEIHAKIPEKRLYEGLHKLLEGWKQYGLKNLVFNITNMIITGKLVNDSILFLRSTLFEIMVLPNGDGRSLIKFNKKTGSTKTLTKLATEIQIILQKEGVLDK
modifications: GST-HisX6 tag
notes: as for B1
B5: ROT1: yeast GST-HisX6 fusion protein on proteome chip (protein, UniProt Q03691 25-256, looked up)
Protein ROT1: EDESNSIYGTWSSKSNQVFTGPGFYDPVDELLIEPSLPGLSYSFTEDGWYEEATYQVSGNPRNPTCPMASLIYQHGTYNISENGTLVLNPIEVDGRQLFSDPCNDDGVSTYSRYNQTETFKEYAVGIDPYHGIYTLQLYQYDGTPMQPLYLAYRPPMMLPTETLNPTSSATSTDDPSSNKKRSLRSLVRRSLENRHKTNAIKRQNTSFLTSNAIWYISAGMLGVGSLLFLAF
modifications: GST-His6 tag
notes: as for B1
B6: MET8: yeast GST-HisX6 fusion protein on proteome chip (protein)
chain: MVKSLQLAHQLKDKKILLIGGGEVGLTRLYKLIPTGCKLTLVSPDLHKSIIPKFGKFIQNEDQPDYREDAKRFINPNWDPTKNEIYEYIRSDFKDEYLDLEDENDAWYIIMTCIPDHPESARIYHLCKERFGKQQLVNVADKPDLCDFYFGANLEIGDRLQILISTNGLSPRFGALVRDEIRNLFTQMGDLALEDAVVKLGELRRGIRLLAPDDKDVKYRMDWARRCTDLFGIQHCHNIDVKRLLDLFKVMFQEQNCSLQFPPRERLLSEYCSS
modifications: left off: a dimerising Fc or GST
notes: as for B1
B7: AKL1: yeast GST-HisX6 fusion protein on proteome chip (protein, UniProt P38080 2-1108, looked up)
Serine/threonine-protein …: SITNGTSRSVSAMGHPAVERYTPGHIVCVGTHKVEVVNYLAEGGFAQIYVVKFLEYLNEFDNTASVPLKIGDVACLKRVLVQDENGLNEMRNEVEVMKKLKGAPNIVQYFDSNASRRRDGVQGFEVLLLMELCPNKSLLDYMNQRLSTKLTEAEIVKIMYDVALSISQMHYLPVSLIHRDIKIENVLVDAKNNFKLADFGSTSTCFPIVTTHQDIALLTQNIYVHTTPQYRSPEMIDLYRCLPINEKSDIWALGVFLYKLLFFTTPFEMTGQFAILHSKYEFPVNKYSSKLINLIIIMLAENPNLRPNIYQVLYHLCEILNVEVPIEDKYAEGAYNFSKYTQFQNKLQNVQLQMYQLQQKKIMQNNKLSDSEENLLNDMFLSSFEISSKLPMNASDGHAAVSRIPSQNVGQELEEEKESQSDQRKSTLSEDKSSRTTSNANSSGTANNPQEINTIQSPGIEDKSIFENKTPGELYYPSVSELDTYLDKELVKQSSDPTISEQSPRLNTQSLPQRQKSTSSYSSGGRSMKSTSYGAATIGSDEALANEKTAGINKMKQHKSNNPFPKMNVAYHSTNELSNDASNFFLEEQQQGQRYQQAQNQTGTQGNTFPDESQYQSRVEQQQQQQDQPKGPANYSQRNFYTGRDRSNKPMQLGGTIAGDSGNRRVNFQNISQNYATNSQSGYLPSQNSPAIPMVRPVISMNQQQAQQIQAQQLQAQQMQAKQQMQAKQQMQVQQQLQVQQQMQIQNANNNGTYVSDRTNHTTEDMRNAQGGEPPILAGNSANEPMHSSSKNEALLIELSPLKEDAGKQSFQDTNEPQTGGIEDAGGSGTIKGSNNNRNGVLNLSLNEMDLSRDDTGAAVSSFSSSSSSASIQQAKLSGRKGSSKRNNYSTDELGDSMVSSESIDIDLDDARRGKTAERRPLHNERGHKDQARSSDASKSNQFKSKDFSSVSTRQPRQSLDLNFQEVNLSSPTLTQEHRNKNDSPAPNSHHSYRVSPHASTAITENKRHSTGHELSTRSNGKHETHRTGSKQRHDLERYRHSKDKDSNSSITISTSTPSEMRKSFARARQSLDLERVRREAMASSASSSGGSNGKRRSFFSVFRSEK
modifications: GST-His6 tag
notes: as for B1

One series has as its system PI(3)P liposomes. The experiment in a line: Yeast proteome chip probed with PI(3)P liposomes. The conditions noted are these: liposome binding signal on yeast proteome chip, Cy3-streptavidin detection.
With B1, the “PI(3)P” value is listed as 17.50.

Turning to B2, the “PI(3)P” value worked out at 72.00.

For the molecule B3, the “PI(3)P” value was determined as 3.50.

Take B4: the “PI(3)P” value turned out to be 33.50.

On to B5, for which the “PI(3)P” value was 33.25.

Consider B6, for which the “PI(3)P” value is given as 117.00.

B7: the “PI(3)P” value worked out at 19.50.

The next series relates to PI(3,4)P2 liposomes. Briefly: Yeast proteome chip probed with PI(3,4)P2 liposomes. The conditions noted are these: liposome binding signal on yeast proteome chip, Cy3-streptavidin detection.
As to B1, the “PI(3, 4)P2” value is 179.27.

Turning to B2, the “PI(3, 4)P2” value amounted to 138.45.

In the case of B3, the “PI(3, 4)P2” value turned out to be 81.94.

For the molecule B4, the “PI(3, 4)P2” value stood at 234.84.

As for B5, the “PI(3, 4)P2” value amounted to 137.98.

As for B6, the “PI(3, 4)P2” value amounted to 95.44.

For B7, the “PI(3, 4)P2” value is recorded as 132.49.

In a further series the test system is PI(4)P liposomes. Briefly: Yeast proteome chip probed with PI(4)P liposomes. As to conditions: liposome binding signal on yeast proteome chip, Cy3-streptavidin detection.
As for B1, the “PI(4)P” value came to 188.13.

B2: the “PI(4)P” value was 668.47.

Turning to B3, the “PI(4)P” value is given as 198.15.

As to B4, the “PI(4)P” value was found to be 84.92.

Regarding B5, the “PI(4)P” value amounted to 52.04.

As to B6, the “PI(4)P” value was 175.94.

For B7, the “PI(4)P” value is 189.44.

The test system of the next series is phosphatidylcholine (PC) liposomes. The experiment in a line: Yeast proteome chip probed with PC liposomes. The conditions noted are these: liposome binding signal on yeast proteome chip, Cy3-streptavidin detection. In short, it runs like this:
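Signal comes from Cy3- or Cy5-streptavidin recognising 1% (w/w) biotin-DHPE carried in every liposome. Liposomes were PC alone or PC containing 5% (w/w) of a single phosphoinositide, applied to arrayed GST-fusion yeast proteins for 1 h at RT.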
On to B1, for which the PC stood at 250.04.

B2 displayed a PC of 464.28.

For B3, the PC was determined as 255.33.

The molecule B4 returned a PC of 123.26.

In the case of B5, the PC was 121.50.

On to B6, for which the PC is 188.12.

For B7, the PC is 207.20.

Another series relates to PI(4,5)P2 liposomes. Briefly: Yeast proteome chip probed with PI(4,5)P2 liposomes. The conditions noted are these: liposome binding signal on yeast proteome chip, Cy3-streptavidin detection.
B1: the “PI(4, 5)P2” value came to 37.89.

Take B2: the “PI(4, 5)P2” value is listed as 319.65.

For B3, the “PI(4, 5)P2” value worked out at 22.21.

As for B4, the “PI(4, 5)P2” value is given as 67.06.

Consider B5, for which the “PI(4, 5)P2” value came out at 63.58.

For the molecule B6, the “PI(4, 5)P2” value worked out at 244.09.

B7: the “PI(4, 5)P2” value was found to be 57.48.

The subject of another series is PI(3,4,5)P3 liposomes. Briefly: Yeast proteome chip probed with PI(3,4,5)P3 liposomes. As to conditions: liposome binding signal on yeast proteome chip, Cy3-streptavidin detection.
Take B1: the “PI(3, 4, 5)P3” value is listed as 41.17.

For the molecule B2, the “PI(3, 4, 5)P3” value is on record as 92.70.

Consider B3, for which the “PI(3, 4, 5)P3” value amounted to 61.20.

With B4, the “PI(3, 4, 5)P3” value is reported as 65.47.

Take B5: the “PI(3, 4, 5)P3” value was 99.11.

With B6, the “PI(3, 4, 5)P3” value is 25.42.

As to B7, the “PI(3, 4, 5)P3” value is given as 93.38.
